Measured values reported in paper doi:10.1101/2024.12.30.630799.

Target: BE-eRNP adenine base editor: bipartite NLS, TadA (ABE8.20-m variant), 32-amino acid glycine/serine-rich linker, S. pyogenes nCas9 (D10A, C80A), bipartite NLS, complexed with sgRNA (Escherichia coli | Streptococcus pyogenes)
Assay: not stated; oligomeric state of the purified eRNPs (protein combined with sgRNA); the method stands only in Supp Figures 1-3

BE-eRNP adenine base editor: bipartite NLS, TadA (ABE8.20-m variant), 32-amino acid glycine/serine-rich linker, S. pyogenes nCas9 (D10A, C80A), bipartite NLS, complexed with sgRNA (enzyme)
stoichiometry N: 2
